Reference: patent US20200354475A1 (KITE PHARMA, published 2020)

Target: T1, CAR comprising the anti-CD19 scFv FMC63 (SEQ ID NO: 1)
T1 construct: also called FMC63 CAR; CAR presenting the anti-CD19 scFv FMC63; not shown: rest of the CAR (hinge, transmembrane and signalling domains) is not described for the constructs used
Experiment: immunohistochemistry on fixed cell pellets of CAR T cells presenting the FMC63 scFv, PBMC as control
Description: Several antibodies disclosed herein, (Clones 7 and 13) were assessed with respect to their ability to function as reagents in immunohistochemistry (IHC) studies. To create the fixed cell pellets for IHC staining, ˜2e6 CAR T cells presenting the anti-CD19 scFv FMC63 (SEQ ID NO: 1) were centrifuged and washed with PBS. The cells were resuspended in PBS containing 0.45% paraformaldehyde (PFA) and incubated on a shaking platform for 2 hours at room temperature. After the incubation, the cells were washed once more with PBS and resuspended in PBS with 5% BSA.

T1 sequence (chain, as listed by the source): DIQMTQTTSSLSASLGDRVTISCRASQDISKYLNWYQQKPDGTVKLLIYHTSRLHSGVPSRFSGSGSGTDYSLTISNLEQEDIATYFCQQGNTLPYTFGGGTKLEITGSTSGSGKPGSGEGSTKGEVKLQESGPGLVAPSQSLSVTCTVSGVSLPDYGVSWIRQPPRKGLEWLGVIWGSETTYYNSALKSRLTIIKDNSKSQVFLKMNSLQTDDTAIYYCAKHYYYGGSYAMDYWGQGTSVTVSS

- binding result: binds
B1: Clone 7 (antibody, V domains shown)
VH: QEQLEESGGDLVKPGGTLTVTCKASGFSFSNNGICWVRQAPGKGLEWIGCLYVGSSDTTYYASWAKGRFTISKSSSTTVTLQMTSLTVADTATYFCTINLGLWGPGTLVTVSS
VL: AIVVTQTPSSKSVPVGGTVTINCQASESVYNSDWLAWYQQKPGQPPKQLIYAASTLASGVPSRFKGSGSGTQFTLTISDVVCDDAATYYCAGYKSSSTDGIAFGGGTEVVVKG
notes: Rabbit monoclonal antibody from a hybridoma; also called antibody Clone 7
